We go through four molecules from paper PMC4797280 (Nucleic Acids Research, 2016).

Experiment in all cases: two-hybrid
Experiment [1] has as its target S. cerevisiae Mre11 (LexA-Mre11) (S. cerevisiae) (UniProt P32829).
Experiment [2] shares this target. This is another data set of the same source.
For experiment [3], the target named is T1, S. cerevisiae Mre11 (LexA-Mre11) (S. cerevisiae, UniProt P32829 1-692).
T1 sequence (looked up): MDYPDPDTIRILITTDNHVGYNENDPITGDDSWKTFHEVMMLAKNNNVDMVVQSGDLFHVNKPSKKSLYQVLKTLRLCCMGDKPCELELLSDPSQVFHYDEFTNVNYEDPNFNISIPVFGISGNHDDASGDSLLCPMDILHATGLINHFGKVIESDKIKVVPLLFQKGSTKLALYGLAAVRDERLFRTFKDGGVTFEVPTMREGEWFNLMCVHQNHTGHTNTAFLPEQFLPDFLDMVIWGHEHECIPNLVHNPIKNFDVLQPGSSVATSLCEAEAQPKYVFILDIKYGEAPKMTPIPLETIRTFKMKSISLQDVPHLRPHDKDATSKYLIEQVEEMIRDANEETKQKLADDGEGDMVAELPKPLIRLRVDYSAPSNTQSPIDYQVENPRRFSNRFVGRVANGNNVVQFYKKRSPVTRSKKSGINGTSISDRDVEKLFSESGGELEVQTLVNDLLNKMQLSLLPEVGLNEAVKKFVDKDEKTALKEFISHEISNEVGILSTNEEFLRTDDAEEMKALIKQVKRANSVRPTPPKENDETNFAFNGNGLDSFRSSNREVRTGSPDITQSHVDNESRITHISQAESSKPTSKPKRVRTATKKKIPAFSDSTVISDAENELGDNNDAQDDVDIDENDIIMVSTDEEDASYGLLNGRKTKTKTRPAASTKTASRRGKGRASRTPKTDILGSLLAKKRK

In experiment [4] the target is T2, Mre11^I158R (LexA-Mre11^I158R) (S. cerevisiae, UniProt P32829 1-692, I158R).
T2 sequence (looked up): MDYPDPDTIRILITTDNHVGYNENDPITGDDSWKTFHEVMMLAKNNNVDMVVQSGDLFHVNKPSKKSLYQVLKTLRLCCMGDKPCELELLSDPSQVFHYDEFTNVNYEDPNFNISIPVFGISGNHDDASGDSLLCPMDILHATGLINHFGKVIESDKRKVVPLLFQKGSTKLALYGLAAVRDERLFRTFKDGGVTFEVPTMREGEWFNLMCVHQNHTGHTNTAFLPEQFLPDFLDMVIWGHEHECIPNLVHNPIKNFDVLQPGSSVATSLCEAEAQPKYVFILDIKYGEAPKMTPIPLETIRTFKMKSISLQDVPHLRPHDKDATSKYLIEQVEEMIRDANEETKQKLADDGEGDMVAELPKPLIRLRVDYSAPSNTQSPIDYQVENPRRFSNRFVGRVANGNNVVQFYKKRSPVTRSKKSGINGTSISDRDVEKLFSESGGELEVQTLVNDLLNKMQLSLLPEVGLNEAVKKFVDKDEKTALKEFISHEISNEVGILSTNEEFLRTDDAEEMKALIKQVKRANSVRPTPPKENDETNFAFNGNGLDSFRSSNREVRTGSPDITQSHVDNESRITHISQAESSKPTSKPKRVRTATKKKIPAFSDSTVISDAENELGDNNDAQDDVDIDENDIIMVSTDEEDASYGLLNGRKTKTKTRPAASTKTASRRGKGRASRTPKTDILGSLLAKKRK

Experiment [5] concerns the target T3, Mre11^D16A (LexA-Mre11^D16A) (S. cerevisiae, UniProt P32829 1-692, D16A).
T3 sequence (looked up): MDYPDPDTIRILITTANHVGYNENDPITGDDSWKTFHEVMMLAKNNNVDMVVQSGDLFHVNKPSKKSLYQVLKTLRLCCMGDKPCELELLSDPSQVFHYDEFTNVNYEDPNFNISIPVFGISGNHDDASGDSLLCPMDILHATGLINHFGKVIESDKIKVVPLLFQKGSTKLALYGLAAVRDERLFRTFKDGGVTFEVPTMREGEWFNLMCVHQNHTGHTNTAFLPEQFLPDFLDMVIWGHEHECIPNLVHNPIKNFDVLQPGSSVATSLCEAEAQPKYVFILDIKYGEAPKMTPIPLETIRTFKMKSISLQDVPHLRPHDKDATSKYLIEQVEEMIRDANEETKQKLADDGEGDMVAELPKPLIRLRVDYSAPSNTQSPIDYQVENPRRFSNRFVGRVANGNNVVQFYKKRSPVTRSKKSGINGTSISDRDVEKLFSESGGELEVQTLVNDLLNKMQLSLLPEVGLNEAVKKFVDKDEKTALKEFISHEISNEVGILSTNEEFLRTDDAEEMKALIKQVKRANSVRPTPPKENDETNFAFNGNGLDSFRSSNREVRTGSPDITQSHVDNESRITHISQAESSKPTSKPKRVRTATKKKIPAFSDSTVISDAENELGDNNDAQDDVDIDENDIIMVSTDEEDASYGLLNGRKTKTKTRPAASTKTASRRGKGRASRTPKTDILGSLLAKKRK

For experiment [6], the target named is T4, Mre11^P84S (LexA-Mre11^P84S) (S. cerevisiae, UniProt P32829 1-692, P84S).
T4 sequence (looked up): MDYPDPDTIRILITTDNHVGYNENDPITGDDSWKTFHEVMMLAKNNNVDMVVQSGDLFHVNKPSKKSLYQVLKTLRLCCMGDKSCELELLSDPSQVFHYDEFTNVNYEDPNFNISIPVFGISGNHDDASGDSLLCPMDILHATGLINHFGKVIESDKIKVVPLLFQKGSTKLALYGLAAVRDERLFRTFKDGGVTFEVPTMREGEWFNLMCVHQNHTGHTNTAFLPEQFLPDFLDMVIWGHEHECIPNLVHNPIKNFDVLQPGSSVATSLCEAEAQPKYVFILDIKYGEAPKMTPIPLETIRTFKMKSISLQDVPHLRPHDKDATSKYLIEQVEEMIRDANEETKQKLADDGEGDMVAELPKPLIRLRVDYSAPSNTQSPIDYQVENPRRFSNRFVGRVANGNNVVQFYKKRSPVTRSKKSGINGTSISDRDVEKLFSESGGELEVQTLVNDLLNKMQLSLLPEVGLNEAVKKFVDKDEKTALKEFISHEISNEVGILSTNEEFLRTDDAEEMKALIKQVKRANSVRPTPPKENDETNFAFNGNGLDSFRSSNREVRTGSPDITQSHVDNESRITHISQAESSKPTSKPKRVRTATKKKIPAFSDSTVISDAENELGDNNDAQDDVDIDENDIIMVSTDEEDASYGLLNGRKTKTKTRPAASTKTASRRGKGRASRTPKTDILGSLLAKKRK

The target in experiment [7] is T5, Mre11^T188I (LexA-Mre11^T188I) (S. cerevisiae, UniProt P32829 1-692, T188I).
T5 sequence (looked up): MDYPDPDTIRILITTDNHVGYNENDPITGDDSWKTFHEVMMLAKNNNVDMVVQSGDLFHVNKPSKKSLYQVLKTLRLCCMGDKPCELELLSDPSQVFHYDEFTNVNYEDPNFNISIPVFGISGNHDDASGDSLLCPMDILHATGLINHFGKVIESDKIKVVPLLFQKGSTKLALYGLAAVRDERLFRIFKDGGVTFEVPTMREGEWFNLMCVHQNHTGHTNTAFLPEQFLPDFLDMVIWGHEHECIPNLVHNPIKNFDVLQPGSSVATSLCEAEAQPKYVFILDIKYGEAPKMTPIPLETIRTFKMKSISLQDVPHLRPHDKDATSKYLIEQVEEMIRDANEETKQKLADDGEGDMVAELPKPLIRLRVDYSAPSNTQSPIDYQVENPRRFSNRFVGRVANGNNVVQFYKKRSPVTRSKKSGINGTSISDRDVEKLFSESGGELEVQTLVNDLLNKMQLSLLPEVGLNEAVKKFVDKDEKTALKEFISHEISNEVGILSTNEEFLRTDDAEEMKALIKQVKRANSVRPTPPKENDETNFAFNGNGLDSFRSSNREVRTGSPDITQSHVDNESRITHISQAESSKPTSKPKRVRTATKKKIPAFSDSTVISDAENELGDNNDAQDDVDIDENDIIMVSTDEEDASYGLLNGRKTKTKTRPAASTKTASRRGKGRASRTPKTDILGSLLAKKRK

Experiment [8] addresses T1, S. cerevisiae Mre11 (LexA-Mre11). This is another data set of the same source.
In experiment [9] the target is T2, Mre11^I158R (LexA-Mre11^I158R). This is another data set of the same source.

Read-outs that look alike come from different tables or passages of the source.

With “Smt3 (Gal4AD-Smt3) (from UniProt Q12306 1-101) (natural protein)”, the two-hybrid β-galactosidase activity (β-galactosidase units) in [1] came to 71.9; in [2], 38.8.

Consider “Smt3-allR (Gal4AD-Smt3^allR) (from UniProt Q12306 1-101) (natural protein)”, for which the two-hybrid β-galactosidase activity (β-galactosidase units) in [1] stood at 21.8; in experiment [2] it was 5.4.

B1: Xrs2 (Gal4AD-Xrs2) (natural protein, S. cerevisiae, UniProt P33301 1-854, looked up)
chain: MWVVRYQNTLEDGSISFISCCLQAFKTYSIGRSSKNPLIIKNDKSISRQHITFKWEINNSSDLKHSSLCLVNKGKLTSLNKKFMKVGETFTINASDVLKSTIIELGTTPIRIEFEWINEVWNIPPHLTQFRTMLSEYGISTEISINDIPANLMISDYPKSEDNSIRELYALVSTIPMKKSRFLMELCNTLLPTSKTNLKFDEMWNDMISNPEYNVFDFDPNILLSKFMRLNNIRVLTTIKSEPRLSSLLRTFNINLFAFDNIDSLYKYVDSLEASTEYLILTTTDKKENGKILCTIKTMLTSIIDGTLSAVINMKGASSRTLDNGKFDQISEGMSTILKTSRAPEVEASPVVSKKRKLNRRRVLPLDSLDFFAGGLSTKTLSENRSLTDAKRLNCGAESKTVISSPNIAEADEKHAPFLQNALKPTEDIGKKSGHSSPGAIIVSSPNLGTVNTSEDSLDKSLQSHKLPQPSLPEVAGIGSQTISSNSADYETAAVNSMDDAEVTKNFRVNHHQNIEQPSKNIRKLSNYSREISSPLQENCKSPVKELSIKEKSGTPHAFVEAIQETKNREVKRVKSTIVELKDEELSEEAINQLKNLAIVEPSNNLLRKSFDSEGNKTSRTTEKWENSLMEPEWHKRKNFKTFVKVRPKSKAHKEEGKNNTQSSDFIRNAAFLITRNYVPLKKYSKKDTTTKWGTEENEDMFALTEMERFGSNTFMSDNINSNTIQKRSQALNRFTNEDSSNEGEEDSFSFSRCSGTAASVQPLKNKIFITDEDDLGDIDDKSDRLNHRENNRNLFVVKEMNLRPNLSEECSKQSRHSRSATSRSRGSFGASNNGDGDDDDDDGPKFTFKRRKG
B1: the “two-hybrid β-galactosidase activity” value in [3] was 188 ± 8.5 β-galactosidase units; in [4], 37.9 ± 4 β-galactosidase units; in [5], 76.2 ± 7 β-galactosidase units; in experiment [6], 162 ± 6.4 β-galactosidase units; in experiment [7] it was 153 ± 4.7 β-galactosidase units; in experiment [8], 125 ± 9.5 β-galactosidase units. Moreover, the “two-hybrid β-galactosidase activity” value in [9] was 35.1 ± 1 β-galactosidase units.

B2: Smt3 (Gal4AD-Smt3) (natural protein, S. cerevisiae, UniProt Q12306 1-101, looked up)
chain: MSDSEVNQEAKPEVKPEVKPETHINLKVSDGSSEIFFKIKKTTPLRRLMEAFAKRQGKEMDSLRFLYDGIRIQADQTPEDLDMEDNDIIEAHREQIGGATY
For the molecule B2, the figures for the “two-hybrid β-galactosidase activity” value in experiment [6] and in experiment [7] were 51.7 ± 3.1 β-galactosidase units and 60.1 ± 3.6 β-galactosidase units, respectively.
